The values below come from article PMC11883000, “Structure-function relationship of ASH1L and histone H3K36 and H3K4 methylation” (Nature Communications, 2025).

The target in this experiment is Substitution of D2595 or D2584 with alanine (ASH1L PHD finger mutants). As to the kind of experiment: not stated; wild type and mutants of ASH1LPHD with H3K4me3 peptide (Fig. 3c, Supplementary Figs. 5 and 6); the legend names tryptophan fluorescence, MST or NMR, which for each mutant is marked only in the figure.

Substance “histone H3K4me3 peptide (aa 1-12 of H3) (from UniProt P68431 2-13)” had a Kd of 5 to 7 µM.

The Kd is the free concentration of one partner at which half of the binding sites on the other are occupied at equilibrium, for simple one-to-one binding.
